Measured values from the Human Domainome abundance scans (Beltran et al. 2025).

B1: POU domain, class 4, transcription factor 2, residues 256 to 327; numbered along this chain, Q12837 (parent)
chain: RDLEAFAERFKQRRIKLGVTQADVGSALANLKIPGVGSLSQSTICRFESLTLSHNNMIALKPILQAWLEEAE
B2: RAS guanyl-releasing protein 1, residues 539 to 593; numbered along this chain, O95267 (parent)
chain: GFPHNFQETTYLKPTFCDNCAGFLWGVIKQGYRCKDCGMNCHKQCKDLVVFECKK

Variants of: B1
Experiment: abundance fitness (aPCA) (normalised: wild type 0, dead -1); higher = more abundant; growth selection in yeast, the domain comes from the species named
Details: Homo sapiens

Abundance fitness, by site and new letter:
D2: E -0.102; A -0.241; F -0.376; C -0.511
R1: E 0.368; G 0.055; P -0.199; T -0.186; V -0.107; A 0.078; W -0.143; L -0.354; S -0.235; C -0.445

Variants of: B2
Experiment: as above
Details: Homo sapiens

Abundance fitness, by site and new letter:
D36: I -0.028; Q -0.209; L -0.051; K -0.139; V -0.289; R -0.055; Y -0.296; W -0.041; T -0.02; S -0.028; N -0.006; M -0.09; P -0.2; H -0.148
H42: K -0.849; Y -0.892; L -1.09; M -0.76; P -0.859; A -0.841; R -0.916; I -0.939; F -0.981; N -0.815; V -1.09; C -0.416; S -0.319; Q -0.862; W -0.286; T -0.921; G -0.249
M39: P -1.03; G -0.097; D -0.242; Q -0.032; F -0.158; R -0.143; C -0.455; W -0.157; I -0.115; L -0.122; K -0.079; Y -0.1; A -0.111; V -0.111; T -0.142; N -0.15
E52: A -0.068; D 0.104; S -0.203; T -0.037; Q -0.166; C -0.115; L -0.168; H -0.053; V -0.148; I -0.063; F 0.184; G -0.031; N -0.174; M -0.121; W -0.267; K -0.057; P -0.066
G38: L -0.075; M -0.095; E 0.077; P -0.081; N 0.062; T -0.282; F -0.071; Q -0.281; I -0.453; A 0.032; W -0.109; S -0.02; D -0.003; Y -0.514; C -0.095
N40: D -0.023; G -0.08; T -0.042; Q -0.02; R -0.142; I -0.093; C -0.137; K -0.17; E -0.082; A -0.081; H -0.127; P -0.144; V -0.063; M -0.087; Y -0.285; L -0.349
D47: G -0.05; L -0.141; V -0.113; Y -0.105; W -0.142; H -0.32; M -0.204; A -0.056; N -0.306; P -0.054; T 0.047; S 0.068; I -0.211; F -0.143; C 0.212; Q 0.083; K -0.148; R -0.177
V50: R -0.11; L 0.07; S -0.03; D -0.208; M 0.043; E 0.037; P -0.157; A -0.064; I -0.541; G -0.076; K -0.383; Y -0.231; N -0.228; H -0.214; Q 0.06; W -0.121; C 0.042
C37: G -1.14; Q -0.87; E -0.967; F -0.924; A -1.25; M -0.904; P -1.07; T -0.427; S -0.625; K -0.933; V -0.959; D -0.864; Y -0.708; L -0.953; W -0.607; N -0.824; R -0.879
C45: S -0.486; I -0.554; N -0.647; H -0.446; P -0.977; K -0.643; L -0.976; Y -0.575; A -0.527; D -0.036; F -0.514; G -0.347; V -0.621; W -0.772; E 0.068; M -0.57; R -0.773
K54: W -0.378; R -0.028; L -0.269; P -0.586; F -0.228; I -0.266; G -0.303; H -0.567; E -0.103; C -0.157; M 0.018; A -0.233; N -0.113; V -0.248; Q -0.113; D -0.186
V49: T -0.055; F 0.002; P -0.174; W 0.038; C -0.229; H 0.229; G -0.122; A 0.041; R 0.094; N 0.035; M -0.446; E -0.001; Q -0.071; I -0.319; L -0.276
K43: P -0.146; D 0.011; E -0.002; I 0.232; N -0.417; M -0.031; W -0.481; R -0.094; F -0.24; C -0.053; L -0.066; A -0.049; S -0.006; G -0.074; T -0.024
C41: H -0.662; A -0.016; V 0.068; M -0.281; E -0.414; L -0.023; W -0.191; I -0.012; Y 0.02; D -0.758; F -0.331; N -0.47; T -0.035; Q -0.484; K -0.139
Q44: S 0.149; R 0.047; I -0.294; A 0.011; E 0.131; T -0.226; P -0.119; H 0.083; W 0.003; M -0.001; L -0.057; V 0.079; K 0.043; C 0.011; Y 0.128; N -0.238; D 0.125; F 0.072
K55: N -0.138; G -0.084; R -0.435; S 0.077; H -0.597; T -0.271; D -0.528; L -0.718; E -0.242
C53: M -0.095; T -0.245; K -0.257; H -0.009; V -0.103; D -0.061; Q 0.043; R -0.255; L 0.021; E -0.209; F -0.32; I -0.297; N 0.13; Y -0.198; W -0.082
F51: R -0.008; H -0.426; A -0.074; M -0.029; S 0.011; D -0.043; T -0.435; L -0.053; Q 0.002; K -0.155; E -0.044; N 0.256; G 0.033; P -0.07; V -0.046; Y 0.05; W -0.09; C -0.061
L48: K 0.011; I -0.378; H -0.209; C 0.069; V -0.049; R -0.136; G 0.074; W -0.052; E -0.061; Y 0.007; Q 0.031; S 0.058; F 0.018; A 0.023; T -0.047; M 0.055; P -0.15; N -0.295
K46: A -0.09; V -0.251; L -0.007; D -0.541; S -0.078; P -0.147; W -0.032; Y -0.052; T -0.069; F -0.228; C 0.129; G -0.018; E -0.013; M 0.208; N -0.337; R -0.01; H 0.096
